# Experimental data: patent publication US12679878B2, “CRF2 receptor agonists and their use in therapy” (SANOFI, priority 2020, dated 2026)
# Starred links: 1 amine or outer side, 2 acyl side, 3 side chain; linkers in the order of their positions; H or OH if unused. Non-standard residues stand in square brackets, D forms with d. Groups on a side chain read outwards from the residue. No end group written: not given here. *: point of attachment. C20 diacid = O=C(O)CCCCCCCCCCCCCCCCCCC(=O)*; C18 diacid = O=C(O)CCCCCCCCCCCCCCCCC(=O)*; γGlu = O=C(O)[C@H](CCC(=O)[*:2])N[*:1]; Palmitoyl = CCCCCCCCCCCCCCCC(=O)*; AEEA = NCCOCCOCC(=O)O; Aib = CC(C)(N)C(=O)O
# B1: SEQ ID NO: 175 (peptide)
# peptide: IVLSLD[dV]PIKLK([AEEA-AEEA-γGlu-C20 diacid])QILLKQARQK[Aib]QRAQAEKNKRILERV-NH2
# modifications: N-terminus assumed
# SMILES: CC[C@H](C)[C@H](N)C(=O)N[C@H](C(=O)N[C@@H](CC(C)C)C(=O)N[C@@H](CO)C(=O)N[C@@H](CC(C)C)C(=O)N[C@@H](CC(=O)O)C(=O)N[C@@H](C(=O)N1CCC[C@H]1C(=O)N[C@H](C(=O)N[C@@H](CCCCN)C(=O)N[C@@H](CC(C)C)C(=O)N[C@@H](CCCCNC(=O)COCCOCCNC(=O)COCCOCCNC(=O)CC[C@H](NC(=O)CCCCCCCCCCCCCCCCCCC(=O)O)C(=O)O)C(=O)N[C@@H](CCC(N)=O)C(=O)N[C@H](C(=O)N[C@@H](CC(C)C)C(=O)N[C@@H](CC(C)C)C(=O)N[C@@H](CCCCN)C(=O)N[C@@H](CCC(N)=O)C(=O)N[C@@H](C)C(=O)N[C@@H](CCCNC(=N)N)C(=O)N[C@@H](CCC(N)=O)C(=O)N[C@@H](CCCCN)C(=O)NC(C)(C)C(=O)N[C@@H](CCC(N)=O)C(=O)N[C@@H](CCCNC(=N)N)C(=O)N[C@@H](C)C(=O)N[C@@H](CCC(N)=O)C(=O)N[C@@H](C)C(=O)N[C@@H](CCC(=O)O)C(=O)N[C@@H](CCCCN)C(=O)N[C@@H](CC(N)=O)C(=O)N[C@@H](CCCCN)C(=O)N[C@@H](CCCNC(=N)N)C(=O)N[C@H](C(=O)N[C@@H](CC(C)C)C(=O)N[C@@H](CCC(=O)O)C(=O)N[C@@H](CCCNC(=N)N)C(=O)N[C@H](C(N)=O)C(C)C)[C@@H](C)CC)[C@@H](C)CC)[C@@H](C)CC)C(C)C)C(C)C
# B2: SEQ ID NO: 176 (peptide)
# peptide: IVLSLD[dV]PIKLK([AEEA-AEEA-γGlu-γGlu-C18 diacid])QILLKQERQKKQRQQAEKNKQILAQV-NH2
# modifications: N-terminus assumed
# SMILES: CC[C@H](C)[C@H](N)C(=O)N[C@H](C(=O)N[C@@H](CC(C)C)C(=O)N[C@@H](CO)C(=O)N[C@@H](CC(C)C)C(=O)N[C@@H](CC(=O)O)C(=O)N[C@@H](C(=O)N1CCC[C@H]1C(=O)N[C@H](C(=O)N[C@@H](CCCCN)C(=O)N[C@@H](CC(C)C)C(=O)N[C@@H](CCCCNC(=O)COCCOCCNC(=O)COCCOCCNC(=O)CC[C@H](NC(=O)CC[C@H](NC(=O)CCCCCCCCCCCCCCCCC(=O)O)C(=O)O)C(=O)O)C(=O)N[C@@H](CCC(N)=O)C(=O)N[C@H](C(=O)N[C@@H](CC(C)C)C(=O)N[C@@H](CC(C)C)C(=O)N[C@@H](CCCCN)C(=O)N[C@@H](CCC(N)=O)C(=O)N[C@@H](CCC(=O)O)C(=O)N[C@@H](CCCNC(=N)N)C(=O)N[C@@H](CCC(N)=O)C(=O)N[C@@H](CCCCN)C(=O)N[C@@H](CCCCN)C(=O)N[C@@H](CCC(N)=O)C(=O)N[C@@H](CCCNC(=N)N)C(=O)N[C@@H](CCC(N)=O)C(=O)N[C@@H](CCC(N)=O)C(=O)N[C@@H](C)C(=O)N[C@@H](CCC(=O)O)C(=O)N[C@@H](CCCCN)C(=O)N[C@@H](CC(N)=O)C(=O)N[C@@H](CCCCN)C(=O)N[C@@H](CCC(N)=O)C(=O)N[C@H](C(=O)N[C@@H](CC(C)C)C(=O)N[C@@H](C)C(=O)N[C@@H](CCC(N)=O)C(=O)N[C@H](C(N)=O)C(C)C)[C@@H](C)CC)[C@@H](C)CC)[C@@H](C)CC)C(C)C)C(C)C
# B3: SEQ ID NO: 174 (peptide)
# peptide: IVLSLD[dV]PIKLK([AEEA-AEEA-γGlu-γGlu-C18 diacid])QILLKQARQK[Aib]QRAQAEKNKRILERV-NH2
# modifications: N-terminus assumed
# SMILES: CC[C@H](C)[C@H](N)C(=O)N[C@H](C(=O)N[C@@H](CC(C)C)C(=O)N[C@@H](CO)C(=O)N[C@@H](CC(C)C)C(=O)N[C@@H](CC(=O)O)C(=O)N[C@@H](C(=O)N1CCC[C@H]1C(=O)N[C@H](C(=O)N[C@@H](CCCCN)C(=O)N[C@@H](CC(C)C)C(=O)N[C@@H](CCCCNC(=O)COCCOCCNC(=O)COCCOCCNC(=O)CC[C@H](NC(=O)CC[C@H](NC(=O)CCCCCCCCCCCCCCCCC(=O)O)C(=O)O)C(=O)O)C(=O)N[C@@H](CCC(N)=O)C(=O)N[C@H](C(=O)N[C@@H](CC(C)C)C(=O)N[C@@H](CC(C)C)C(=O)N[C@@H](CCCCN)C(=O)N[C@@H](CCC(N)=O)C(=O)N[C@@H](C)C(=O)N[C@@H](CCCNC(=N)N)C(=O)N[C@@H](CCC(N)=O)C(=O)N[C@@H](CCCCN)C(=O)NC(C)(C)C(=O)N[C@@H](CCC(N)=O)C(=O)N[C@@H](CCCNC(=N)N)C(=O)N[C@@H](C)C(=O)N[C@@H](CCC(N)=O)C(=O)N[C@@H](C)C(=O)N[C@@H](CCC(=O)O)C(=O)N[C@@H](CCCCN)C(=O)N[C@@H](CC(N)=O)C(=O)N[C@@H](CCCCN)C(=O)N[C@@H](CCCNC(=N)N)C(=O)N[C@H](C(=O)N[C@@H](CC(C)C)C(=O)N[C@@H](CCC(=O)O)C(=O)N[C@@H](CCCNC(=N)N)C(=O)N[C@H](C(N)=O)C(C)C)[C@@H](C)CC)[C@@H](C)CC)[C@@H](C)CC)C(C)C)C(C)C
# B4: SEQ ID NO: 173 (peptide)
# peptide: IVLSLD[dV]PIKLK([AEEA-AEEA-γGlu-C20 diacid])QILLKQERQK[Aib]QREQAEKNKQILAQV-NH2
# modifications: N-terminus assumed
# SMILES: CC[C@H](C)[C@H](N)C(=O)N[C@H](C(=O)N[C@@H](CC(C)C)C(=O)N[C@@H](CO)C(=O)N[C@@H](CC(C)C)C(=O)N[C@@H](CC(=O)O)C(=O)N[C@@H](C(=O)N1CCC[C@H]1C(=O)N[C@H](C(=O)N[C@@H](CCCCN)C(=O)N[C@@H](CC(C)C)C(=O)N[C@@H](CCCCNC(=O)COCCOCCNC(=O)COCCOCCNC(=O)CC[C@H](NC(=O)CCCCCCCCCCCCCCCCCCC(=O)O)C(=O)O)C(=O)N[C@@H](CCC(N)=O)C(=O)N[C@H](C(=O)N[C@@H](CC(C)C)C(=O)N[C@@H](CC(C)C)C(=O)N[C@@H](CCCCN)C(=O)N[C@@H](CCC(N)=O)C(=O)N[C@@H](CCC(=O)O)C(=O)N[C@@H](CCCNC(=N)N)C(=O)N[C@@H](CCC(N)=O)C(=O)N[C@@H](CCCCN)C(=O)NC(C)(C)C(=O)N[C@@H](CCC(N)=O)C(=O)N[C@@H](CCCNC(=N)N)C(=O)N[C@@H](CCC(=O)O)C(=O)N[C@@H](CCC(N)=O)C(=O)N[C@@H](C)C(=O)N[C@@H](CCC(=O)O)C(=O)N[C@@H](CCCCN)C(=O)N[C@@H](CC(N)=O)C(=O)N[C@@H](CCCCN)C(=O)N[C@@H](CCC(N)=O)C(=O)N[C@H](C(=O)N[C@@H](CC(C)C)C(=O)N[C@@H](C)C(=O)N[C@@H](CCC(N)=O)C(=O)N[C@H](C(N)=O)C(C)C)[C@@H](C)CC)[C@@H](C)CC)[C@@H](C)CC)C(C)C)C(C)C
# B5: SEQ ID NO: 21 (peptide)
# peptide: IVLSLD[dV]PTKLK([γGlu-Palmitoyl])QKLLKQERQRKE[Aib]EQAEKNKRILERV-NH2
# modifications: N-terminus assumed
# SMILES: CCCCCCCCCCCCCCCC(=O)N[C@@H](CCC(=O)NCCCC[C@H](NC(=O)[C@H](CC(C)C)NC(=O)[C@H](CCCCN)NC(=O)[C@@H](NC(=O)[C@@H]1CCCN1C(=O)[C@H](NC(=O)[C@H](CC(=O)O)NC(=O)[C@H](CC(C)C)NC(=O)[C@H](CO)NC(=O)[C@H](CC(C)C)NC(=O)[C@@H](NC(=O)[C@@H](N)[C@@H](C)CC)C(C)C)C(C)C)[C@@H](C)O)C(=O)N[C@@H](CCC(N)=O)C(=O)N[C@@H](CCCCN)C(=O)N[C@@H](CC(C)C)C(=O)N[C@@H](CC(C)C)C(=O)N[C@@H](CCCCN)C(=O)N[C@@H](CCC(N)=O)C(=O)N[C@@H](CCC(=O)O)C(=O)N[C@@H](CCCNC(=N)N)C(=O)N[C@@H](CCC(N)=O)C(=O)N[C@@H](CCCNC(=N)N)C(=O)N[C@@H](CCCCN)C(=O)N[C@@H](CCC(=O)O)C(=O)NC(C)(C)C(=O)N[C@@H](CCC(=O)O)C(=O)N[C@@H](CCC(N)=O)C(=O)N[C@@H](C)C(=O)N[C@@H](CCC(=O)O)C(=O)N[C@@H](CCCCN)C(=O)N[C@@H](CC(N)=O)C(=O)N[C@@H](CCCCN)C(=O)N[C@@H](CCCNC(=N)N)C(=O)N[C@H](C(=O)N[C@@H](CC(C)C)C(=O)N[C@@H](CCC(=O)O)C(=O)N[C@@H](CCCNC(=N)N)C(=O)N[C@H](C(N)=O)C(C)C)[C@@H](C)CC)C(=O)O
# B6: SEQ ID NO: 177 (peptide)
# peptide: IVLSLD[dV]PIKLK([AEEA-AEEA-γGlu-γGlu-C20 diacid])QILLKQERQKKQRQQAEKNKQILAQV-NH2
# modifications: N-terminus assumed
# SMILES: CC[C@H](C)[C@H](N)C(=O)N[C@H](C(=O)N[C@@H](CC(C)C)C(=O)N[C@@H](CO)C(=O)N[C@@H](CC(C)C)C(=O)N[C@@H](CC(=O)O)C(=O)N[C@@H](C(=O)N1CCC[C@H]1C(=O)N[C@H](C(=O)N[C@@H](CCCCN)C(=O)N[C@@H](CC(C)C)C(=O)N[C@@H](CCCCNC(=O)COCCOCCNC(=O)COCCOCCNC(=O)CC[C@H](NC(=O)CC[C@H](NC(=O)CCCCCCCCCCCCCCCCCCC(=O)O)C(=O)O)C(=O)O)C(=O)N[C@@H](CCC(N)=O)C(=O)N[C@H](C(=O)N[C@@H](CC(C)C)C(=O)N[C@@H](CC(C)C)C(=O)N[C@@H](CCCCN)C(=O)N[C@@H](CCC(N)=O)C(=O)N[C@@H](CCC(=O)O)C(=O)N[C@@H](CCCNC(=N)N)C(=O)N[C@@H](CCC(N)=O)C(=O)N[C@@H](CCCCN)C(=O)N[C@@H](CCCCN)C(=O)N[C@@H](CCC(N)=O)C(=O)N[C@@H](CCCNC(=N)N)C(=O)N[C@@H](CCC(N)=O)C(=O)N[C@@H](CCC(N)=O)C(=O)N[C@@H](C)C(=O)N[C@@H](CCC(=O)O)C(=O)N[C@@H](CCCCN)C(=O)N[C@@H](CC(N)=O)C(=O)N[C@@H](CCCCN)C(=O)N[C@@H](CCC(N)=O)C(=O)N[C@H](C(=O)N[C@@H](CC(C)C)C(=O)N[C@@H](C)C(=O)N[C@@H](CCC(N)=O)C(=O)N[C@H](C(N)=O)C(C)C)[C@@H](C)CC)[C@@H](C)CC)[C@@H](C)CC)C(C)C)C(C)C
# Target: human corticotropin-releasing factor 2α (CRF2 α receptor) (human), Q13324
# Sequence (Q13324 20-411): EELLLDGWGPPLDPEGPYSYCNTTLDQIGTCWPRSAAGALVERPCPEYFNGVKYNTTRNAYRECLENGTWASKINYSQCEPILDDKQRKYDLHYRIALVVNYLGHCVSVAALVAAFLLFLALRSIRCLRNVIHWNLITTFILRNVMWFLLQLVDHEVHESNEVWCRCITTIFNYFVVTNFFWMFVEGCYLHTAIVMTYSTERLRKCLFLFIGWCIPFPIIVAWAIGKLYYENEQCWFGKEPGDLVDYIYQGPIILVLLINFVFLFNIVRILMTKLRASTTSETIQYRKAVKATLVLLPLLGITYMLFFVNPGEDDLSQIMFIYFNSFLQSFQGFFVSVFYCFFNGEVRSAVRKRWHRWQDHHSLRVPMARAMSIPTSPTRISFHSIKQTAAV
# Test: cell-based or functional assay
"EC50 [nM], 0% HSA","EC50 [nM], 0.1% HSA",Binder
0.06 nM,3.64 nM,B1
0.11 nM,3.05 nM,B2
0.07 nM,0.88 nM,B3
0.03 nM,3.49 nM,B4
0.02 nM,–,B5
0.07 nM,5.19 nM,B6
